According to patent US20100136007A1 (Five Prime, published 2010):

Target: T1, hCSF1R-ECD.506 (human, UniProt P07333 20-506)
T1 construct: also called hCSF1R.506; human CSF1R.506
Assay: SPR, Biacore
Experimental: The CSF1 and IL34 ligand binding affinity and kinetics of the hCSF1R.506-GS-Fc and hCSF1R.512-GS-Fc fusion proteins were determined using Biacore® X surface plasmon resonance (SPR) technology (Uppsala, Sweden). CSF1 and IL34 are the only two ligands known to interact with the CSF1R ECD. The CSF1 and IL34 binding experiments were carried out using methodology similar to that described in Lin et al., Science 320:807-811, (2008).
In order to compare the relative ligand binding affinity of hCSF1R.506 (SEQ ID NO:2) and hCSF1R.506-Fc (SEQ ID NO:6) proteins expressed in CHO cells to CSF1, a Biacore® assay was used.

T1 sequence (P07333 20-506 limits assumed): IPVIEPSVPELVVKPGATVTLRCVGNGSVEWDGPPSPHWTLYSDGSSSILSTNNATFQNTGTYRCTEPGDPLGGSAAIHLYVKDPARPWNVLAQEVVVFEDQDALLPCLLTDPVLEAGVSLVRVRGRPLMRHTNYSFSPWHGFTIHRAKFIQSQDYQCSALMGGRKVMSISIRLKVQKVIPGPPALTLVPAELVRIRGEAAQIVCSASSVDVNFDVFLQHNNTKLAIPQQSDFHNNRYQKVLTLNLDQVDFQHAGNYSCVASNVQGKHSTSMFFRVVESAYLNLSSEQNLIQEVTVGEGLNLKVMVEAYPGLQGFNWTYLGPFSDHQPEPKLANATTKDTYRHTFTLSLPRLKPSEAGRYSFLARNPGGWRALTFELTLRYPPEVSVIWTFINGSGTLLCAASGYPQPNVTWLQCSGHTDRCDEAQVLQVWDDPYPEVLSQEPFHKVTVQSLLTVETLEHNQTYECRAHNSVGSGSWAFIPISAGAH

B1: colony stimulating factor 1 ligand (CSF1) (ligand, UniProt P09603 33-190, looked up)
chain: EEVSEYCSHMIGSGHLQSLQRLIDSQMETSCQITFEFVDQEQLKDPVCYLKKAFLLVQDIMEDTMRFRDNTPNAIAIVQLQELSLRLKSCFTKDYEEHDKACVRTFYETPLQLLEKVKNVFNETKNLLDKDWNIFSKNCNNSFAECSSQDVVTKPDCN
notes: also called MCSF; MGC31930
Kd: 28.9 nM
koff: 0.000809 s⁻¹
kon: 28000 M⁻¹ s⁻¹
